We go through seven molecules from patent US20110184152A1 (published 2011).

Assay [1] deals with T1, human serum albumin (human, UniProt P02768 25-609).
T1 construct: also called HSA; HumanSA
Kind of assay: SPR (BIAcore). (SPR reads the build-up and loss of mass on a sensor chip optically.)

Assay [2] has as its target T1, human serum albumin. Briefly: affinity as humanised IgG; method not named.
Assay [3] addresses T2, mouse serum albumin (mouse, UniProt P07724 25-608).
T2 construct: also called MSA; MurineSA
Kind of assay: affinity as humanised IgG; method not named.

The target in a further assay is T3, rat serum albumin (rat, UniProt P02770 25-608).
T3 construct: also called RatSA
Briefly: affinity as humanised IgG; method not named.

Another assay has as its target T4, IL-1β.
T4 construct: also called IL-1 beta
Kind of assay: SPR (Biacore), construct captured, IL-1β injected.

Assay [4] concerns the target T1, human serum albumin. Kind of assay: SPR (Biacore), construct captured, HSA injected.
The target of assay [5] is T2, mouse serum albumin. Briefly: SPR (Biacore), purified construct.
Assay [6] has as its target T1, human serum albumin. Briefly: SPR (Biacore), purified construct.
Assay [7] addresses T2, mouse serum albumin. Kind of assay: SPR (Biacore), purified construct. This is another data set of the same source.
The target in assay [8] is T1, human serum albumin. Kind of assay: SPR (Biacore), purified construct. This is another data set of the same source.
Assay [9] concerns the target T1, human serum albumin. Kind of assay: SPR (Biacore), running buffer pH5.0; pH 5.
Text: (§1) Covalent immobilisation of the capture antibody was achieved by standard amine coupling chemistry.
Assay [10] deals with T1, human serum albumin. Kind of assay: SPR (Biacore), running buffer pH6.0; pH 6.
For assay [11], the target named is T1, human serum albumin. Briefly: SPR (Biacore), running buffer pH7.0; pH 7.
Text: as §1
The target of assay [12] is T1, human serum albumin. Kind of assay: SPR (Biacore), running buffer pH5.5; pH 5.5.
Text: as §1
Assay [13] addresses T1, human serum albumin. Briefly: SPR (Biacore), construct captured from HEK293 supernatant, HSA injected.

Experimental for IL-1β: as §1
Kinetic parameters were determined by simultaneous global-fitting of the resulting sensorgrams to a standard 1:1 binding model using Biacore T100 Evaluation software.

B1: FabB-645dsFv (S3×G4S), Fv heavy mutation Y100cA (bispecific antibody, V domains shown)
VH: EVQLLESGGGLVQPGGSLRLSCAVSGIDLSNYAINWVRQAPGKCLEWIGIIWASGTTFYATWAKGRFTISRDSTTVYLQMNSLRAEDTAVYYCARTVPGYSTAPAFDLWGQGTLVTVSS
VL: DIVMTQSPSSVSASVGDRVTITCQSSPSVWSNFLSWYQQKPGKAPKLLIYEASKLTSGVPSRFKGSGSGTDFTLTISSLQPEDFATYYCGGGYSSISDTTFGCGTKVEIK
For orientation: Kd means the equilibrium constant for the complex coming apart. A lower Kd goes with a tighter complex. In general, koff refers to the first-order rate constant of dissociation. What is called kon is the rate constant with which the complex forms. Low values mean slower complex formation, high ones faster complex formation. In the assay with human serum albumin [1], B1 had a Kd of 87 nM, an off-rate (koff) of 0.00107 s⁻¹ and an association rate constant (kon) of 12300 M⁻¹ s⁻¹.

B2: Antibody 1 (Antibody 645) as humanised IgG (antibody, V domains shown)
VH: EVQLLESGGGLVQPGGSLRLSCAVSGIDLSNYAINWVRQAPGKGLEWIGIIWASGTTFYATWAKGRFTISRDSTTVYLQMNSLRAEDTAVYYCARTVPGYSTAPYFDLWGQGTLVTVSS
VL: DIVMTQSPSSVSASVGDRVTITCQSSPSVWSNFLSWYQQKPGKAPKLLIYEASKLTSGVPSRFKGSGSGTDFTLTISSLQPEDFATYYCGGGYSSISDTTFGGGTKVEIK
notes: tested as humanised IgG; one grafted VH and one grafted VL were designed for this antibody
For B2, the dissociation constant Kd with human serum albumin [2] was 0.82 nM; with mouse serum albumin [3], 2.9 nM; with rat serum albumin, 7.9 nM.

B3: Fab′A (Fab, V domains shown)
VH: EVQLVESGGGLVQPGGSLRLSCAFSGFSLSTSGVGVGWVRQAPGKGLEWVAHIWWDGDESYNPSLKTQFTISKDTSKNTVYLQMNSLRAEDTAVYYCARNRYDPPWFVDWGQGTLVTVSS
VL: DIQMTQSPSSLSASVGDRVTITCRASQDISNYLSWYQQKPGKAPKLLIYYTSKLHSGVPSRFSGSGSGTDYTLTISSLQPEDFATYYCQQGKMLPWTFGQGTKVEIKR
B3: in the assay with IL-1β, binding was put at a Kd of 0.32 nM, the dissociation rate constant (koff) is 6.46e-05 s⁻¹ and the association rate constant (kon) turned out to be 202000 M⁻¹ s⁻¹.

B4: FabA (Fab, V domains shown)
VH: EVQLVESGGGLVQPGGSLRLSCAFSGFSLSTSGVGVGWVRQAPGKGLEWVAHIWWDGDESYNPSLKTQFTISKDTSKNTVYLQMNSLRAEDTAVYYCARNRYDPPWFVDWGQGTLVTVSS
VL: DIQMTQSPSSLSASVGDRVTITCRASQDISNYLSWYQQKPGKAPKLLIYYTSKLHSGVPSRFSGSGSGTDYTLTISSLQPEDFATYYCQQGKMLPWTFGQGTKVEIKR
As to B4, the binding result in the assay with human serum albumin [4] was “no binding”.

B5: FabB-didAb, -dAbL2 (CK-G4Sx2) & dAbH2 (CH1-G4Sx2) (bispecific antibody)
heavy: ASTKGPSVFPLAPSSKSTSGGTAALGCLVKDYFPEPVTVSWNSGALTSGVHTFPAVLQSSGLYSLSSVVTVPSSSLGTQTYICNVNHKPSNTKVDKKVEPKSCGGGGSGGGGSEVQLVESGGGLVQPGGSLRLSCAVSGFSLSRYAMTWVRQAPGKGLEWIGTITTGGNTNYANWAKGRFTISKDSTTVYLQMNSLRAEDTAVYYCARGGYVSYADATELSLWGQGTLVTVSS
light: RTVAAPSVFIFPPSDEQLKSGTASVVCLLNNFYPREAKVQWKVDNALQSGNSQESVTEQDSKDSTYSLSSTLTLSKADYEKHKVYACEVTHQGLSSPVTKSFNRGECGGGGSGGGGSDIVMTQSPSTLSASVGDRVTITCQASQSIGSRLAWYQQKPGKAPKLLIYYASTVASGVPSRFKGSGSGTEFTLTISSLQPDDFATYYCQSYDYSSSSSYAFGGGTKVEIK
notes: also called FabB-648Fv (G4Sx2); FabB-648Fv (2xG4S)
The molecule B5 displayed an equilibrium dissociation constant (Kd) with mouse serum albumin [5] of 42.4 nM.

B6: FabB-didAb, -dAbL1 (CK-G4Sx2) & dAbH1 (CH1-G4Sx2) (bispecific antibody)
heavy: ASTKGPSVFPLAPSSKSTSGGTAALGCLVKDYFPEPVTVSWNSGALTSGVHTFPAVLQSSGLYSLSSVVTVPSSSLGTQTYICNVNHKPSNTKVDKKVEPKSCGGGGSGGGGSEVQLLESGGGLVQPGGSLRLSCAVSGIDLSNYAINWVRQAPGKGLEWIGIIWASGTTFYATWAKGRFTISRDSTTVYLQMNSLRAEDTAVYYCARTVPGYSTAPYFDLWGQGTLVTVSS
light: RTVAAPSVFIFPPSDEQLKSGTASVVCLLNNFYPREAKVQWKVDNALQSGNSQESVTEQDSKDSTYSLSSTLTLSKADYEKHKVYACEVTHQGLSSPVTKSFNRGECGGGGSGGGGSDIVMTQSPSSVSASVGDRVTITCQSSPSVWSNFLSWYQQKPGKAPKLLIYEASKLTSGVPSRFKGSGSGTDFTLTISSLQPEDFATYYCGGGYSSISDTTFGGGTKVEIK
notes: also called FabB-645Fv (G4Sx2); FabB-645Fv (2xG4S)
As for B6, the Kd turned out to be 6.72 nM with human serum albumin [6]; 8.01 nM in the assay with mouse serum albumin [7]; 17.5 nM with human serum albumin [8]; 24.7 nM with mouse serum albumin [5]; 7.1 nM with human serum albumin [9]; 12.5 nM with human serum albumin [10]. Also, the dissociation constant (Kd) in the assay with human serum albumin [11] is 13.3 nM; in the assay with human serum albumin [12], 10.7 nM; in the assay with human serum albumin [13] it was 9 nM. In the assay with human serum albumin [13], this molecule showed a koff of 0.00016 s⁻¹. The molecule further yielded a kon with human serum albumin [13] of 17800 M⁻¹ s⁻¹.

B7: Antibody 2 (Antibody 648) as humanised IgG (antibody, V domains shown)
VH: EVQLVESGGGLVQPGGSLRLSCAVSGFSLSRYAMTWVRQAPGKGLEWIGTITTGGNTNYANWAKGRFTISKDSTTVYLQMNSLRAEDTAVYYCARGGYVSYADATELSLWGQGTLVTVSS
VL: DIVMTQSPSTLSASVGDRVTITCQASQSIGSRLAWYQQKPGKAPKLLIYYASTVASGVPSRFKGSGSGTEFTLTISSLQPDDFATYYCQSYDYSSSSSYAFGGGTKVEIK
notes: as for B2
Take B7: the Kd with mouse serum albumin [3] is 23 nM; with rat serum albumin it was 54 nM.
